Assay results reported in PMC3866193.

Tests used:
[1] = target: Alexa Fluor 568-labeled GluA2 amino terminal domain; experiment: FRET or BRET; kinetic FRET in a spectrofluorometer, 20°C, excitation 495 nm, emission 603 nm; 50 nM donor-labeled and 50 nM AF568-labeled GluA2 ATD pre-equilibrated (30 min DL488, 60 min FAM), then 1 µM unlabeled GluA2 ATD added; decay fitted with exponential functions
[2] = target: EGFP-GluA2 ATD fusion protein; experiment: AUC; fluorescence-detected sedimentation velocity (FDS-SV), dilution series of labeled protein (Figure 3); 50,000 rpm, 20°C; 20 mM Na phosphate pH 7.5, 150 mM NaCl, 1 mM EDTA, 0.1 mg/mL BSA carrier; sw isotherm fitted with a monomer-dimer model; dimer to monomers

Alexa Fluor 568-labeled GluA2 amino terminal domain, sequence (P19491 whole entry, the tested form may be a part): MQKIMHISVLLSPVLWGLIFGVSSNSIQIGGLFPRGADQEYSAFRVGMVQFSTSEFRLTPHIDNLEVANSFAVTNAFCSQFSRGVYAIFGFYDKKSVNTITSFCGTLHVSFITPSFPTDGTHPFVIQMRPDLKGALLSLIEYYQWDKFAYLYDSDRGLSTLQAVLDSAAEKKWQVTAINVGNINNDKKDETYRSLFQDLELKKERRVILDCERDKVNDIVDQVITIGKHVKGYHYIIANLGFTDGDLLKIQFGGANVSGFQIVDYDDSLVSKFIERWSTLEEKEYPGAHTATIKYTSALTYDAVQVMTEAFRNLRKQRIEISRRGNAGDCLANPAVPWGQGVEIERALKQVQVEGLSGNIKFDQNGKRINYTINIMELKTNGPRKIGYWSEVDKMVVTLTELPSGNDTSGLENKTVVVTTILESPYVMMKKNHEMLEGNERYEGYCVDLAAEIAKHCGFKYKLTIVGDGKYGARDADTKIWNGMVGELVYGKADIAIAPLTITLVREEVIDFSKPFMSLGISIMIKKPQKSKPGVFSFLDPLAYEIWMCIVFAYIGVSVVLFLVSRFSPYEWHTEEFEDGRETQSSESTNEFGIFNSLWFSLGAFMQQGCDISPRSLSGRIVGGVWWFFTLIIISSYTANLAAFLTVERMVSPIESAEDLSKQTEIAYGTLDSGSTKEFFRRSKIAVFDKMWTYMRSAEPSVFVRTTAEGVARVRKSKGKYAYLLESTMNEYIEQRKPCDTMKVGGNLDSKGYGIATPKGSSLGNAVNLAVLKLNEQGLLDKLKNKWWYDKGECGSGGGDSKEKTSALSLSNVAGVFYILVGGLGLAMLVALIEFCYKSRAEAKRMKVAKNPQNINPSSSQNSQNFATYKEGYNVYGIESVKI

half life of the donor/acceptor heterodimer (single-exponential decay) [1]: 3.27 min
Kd [2]: 25.4 nM
stoichiometry N [2]: 2
B1: EGFP-GluA2 ATD fusion protein (domain or fragment)
chain: NSIQIGGLFPRGADQEYSAFRVGMVQFSTSEFRLTPHIDNLEVANSFAVTNAFCSQFSRGVYAIFGFYDKKSVNTITSFCGTLHVSFITPSFPTDGTHPFVIQMRPDLKGALLSLIEYYQWDKFAYLYDSDRGLSTLQAVLDSAAEKKWQVTAINVGNINNDKKDETYRSLFQDLELKKERRVILDCERDKVNDIVDQVITIGKHVKGYHYIIANLGFTDGDLLKIQFGGANVSGFQIVDYDDSLVSKFIERWSTLEEKEYPGAHTATIKYTSALTYDAVQVMTEAFRNLRKQRIEISRRGNAGDCLANPAVPWGQGVEIERALKQVQVEGLSGNIKFDQNGKRINYTINIMELKTNGPRKIGYWSEVDKMVVTLTELPS
modifications: not checked
